In paper PMC6436938 (Molecular Cell, 2019):

Target: importin β (Impβ) (human, UniProt Q14974 1-876)
Experiment: pull-down

Chain of importin β (Impβ) (Q14974 whole entry): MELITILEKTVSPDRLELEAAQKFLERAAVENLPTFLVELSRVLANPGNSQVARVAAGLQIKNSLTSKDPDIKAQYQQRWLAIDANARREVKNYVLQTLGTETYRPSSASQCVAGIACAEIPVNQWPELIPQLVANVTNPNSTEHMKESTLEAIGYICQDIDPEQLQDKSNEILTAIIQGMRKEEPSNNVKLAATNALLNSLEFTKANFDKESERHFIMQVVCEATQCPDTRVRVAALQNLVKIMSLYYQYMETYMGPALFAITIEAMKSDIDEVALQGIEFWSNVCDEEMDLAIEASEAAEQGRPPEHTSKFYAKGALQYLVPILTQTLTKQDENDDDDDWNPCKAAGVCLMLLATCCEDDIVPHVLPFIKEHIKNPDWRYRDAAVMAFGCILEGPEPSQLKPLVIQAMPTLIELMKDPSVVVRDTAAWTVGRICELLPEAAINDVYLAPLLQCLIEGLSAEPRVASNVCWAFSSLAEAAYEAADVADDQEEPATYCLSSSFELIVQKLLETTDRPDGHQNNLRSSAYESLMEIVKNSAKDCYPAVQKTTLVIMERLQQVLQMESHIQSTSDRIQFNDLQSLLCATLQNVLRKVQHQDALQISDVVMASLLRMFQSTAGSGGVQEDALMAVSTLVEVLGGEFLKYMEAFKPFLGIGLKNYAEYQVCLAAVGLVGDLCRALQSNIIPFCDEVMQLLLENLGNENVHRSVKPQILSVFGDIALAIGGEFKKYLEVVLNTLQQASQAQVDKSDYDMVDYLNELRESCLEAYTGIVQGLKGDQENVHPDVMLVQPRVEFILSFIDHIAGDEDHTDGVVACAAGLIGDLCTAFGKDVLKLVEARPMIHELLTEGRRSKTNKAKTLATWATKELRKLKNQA

Row | binding result | Binder
1 | binds | His-tagged H1.0 C-terminal domain (H1C, aas 96–194) (domain or fragment, human, UniProt P07305 96-194, looked up) AKSDEPKKSVAFKKTKKEIKKVATPKKASKPKKAASKAPTKKPKATPVKKAKKKLAATPKKAKKPKTVKAKPVKASKPKKAKPVKPKAKSSAKRAGKKK
2 | binds | Nsp1_FG (497–608), construct containing five FG repeats from nucleoporin Nsp1 (domain or fragment) not shown
